The values below come from patent US20110217334A1.

This test deals with serum IgE of birch pollen allergic individuals. The test is described as follows: ELISA inhibition, Bet v 1a immobilized, BM4 as inhibitor in serial dilutions.

B1: BM4 (protein)
chain: GVFNYETETTSVIPAARLFKAFILDGDNLFPKVAPQAISSVENIEGNGGPGTIKKISFPEGFPFKYVKDRVDEVDHTNFKYNYSVIEGGPIGDTLEKISNEIKIVATPSGSTIKSISNKYHTKGDHEVKAEQVKASKEMGETLLRAVESYLLAHSDAYN
B1 came in with a fold reduced patients' IgE binding capacity compared to Bet v 1a of 100 to 1000 fold.
